± gives the uncertainty stated by the source.
Assay: amyloid nucleation score (Sup35N fusion, yeast selection) (log enrichment); library NNK2; higher = more nucleation; inactive = no reads after selection
Outline: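 Three technical output replicates were used for random libraries. Psi-negative yeast expressing peptides of 20 random codons fused to Sup35N were induced with 100 μM copper sulfate for 24 hours and grown 7 days at 30°C on medium lacking adenine and uracil, and input and output plasmid inserts were Illumina-sequenced, excluding sequences with under 100 input reads. The nucleation score is the DiMSum log enrichment of output over input reads, centred on the mode score of non-aggregating sequences.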

Substance | amyloid nucleation score
VLPQDKNMILYYKSLLHLFC | 0.823 ± 0.44
VLRSVRIFLDN | 1.3 ± 0.15
VLSEI | 0.607 ± 0.25
VLSLHDSVLLYRSAGIRYGW | 5.03 ± 0.058
VLSNKFI | inactive
VLSNYGNYISDWQLQLRLT | -0.149 ± 0.32
VLSVISLFGHILVMFLERKV | -0.13 ± 0.76
VLTVWPYHCAIVEILSGCVL | 5.98 ± 0.081
VLVCRFQSIFGILVVASCVK | -1.53 ± 0.55
VLWCDKWVGNNMKDGELTLW | 0.446 ± 0.43
VLYFLLLFFRD | inactive
VMKFMWKMMLNRERAPYHVL | -0.784 ± 0.49
VMLSLMDKLEYMPV | 1.31 ± 0.32
VMNHSQL | 3.92 ± 0.051
VMTIVIFGLYNY | 2.35 ± 0.18
VNAFLSLKSKACHWACGNDD | 3.67 ± 0.055
VNEIWYDLDYEKVGFV | 2.81 ± 0.074
VNFLWE | -0.447 ± 1.1
VNFYSALSSDNTRMYWLLTV | -0.898 ± 1.1
VNLSTGSRDLRGYWTTPIFQ | -0.815 ± 0.54
VNRPATPFEGSQCLIIYSRV | -0.613 ± 0.45
VPCRSPVSGASKRTYLLINV | 0.045 ± 0.31
VPKAWTVWAQVPINWSARQA | 0.737 ± 0.62
VPLCDVYWA | -0.902 ± 0.61
VPTCN | 0.123 ± 0.54
VQDYFFSCFATRSV | 3.26 ± 0.059

Substance | amyloid nucleation score
VQGLHCWIG | inactive
VQISWRFVPWI | 1.79 ± 0.12
VQYMHNRMVLWFFSDPLKDR | 2.58 ± 0.099
VRCSVCVGACEHGPVN | 1.27 ± 0.61
VRDSSNYMTLFRCSNFWHTR | 6.488 ± 0.051
VRDVKLLPKMVGSNIIGSVL | inactive
VRFFYSFVPT | inactive
VRFIAR | inactive
VRFPTSLFSAEQCTPALCSV | 0.066 ± 1
VRFQELAR | 0.343 ± 0.27
VRFSQKYCSVDIAMQRLFMV | -0.625 ± 0.25
VRFSVLRFGKLCPSGLWRVR | 0.255 ± 1.1
VRGAIVQKALDCKSVDKSLE | inactive
VRGLFVLTVLEVS | -0.161 ± 1.1
VRLRTHMFY | -0.831 ± 0.76
VRNGFKMRRRMSSPVCETLL | -0.642 ± 1.1
VRPFECGFTLPVWGG | 0.923 ± 0.81
VRVDGPTLWCTQVRLSGERA | 0.951 ± 0.17
VRWNIVKSCAVMDSNGIMWV | 0.432 ± 0.33
VRYKSYMDVS | 0.87 ± 0.48
VSAKVFSGGKESVMMCWPPL | 1.58 ± 0.41
VSAWWQDVYSCTHTHAPAAQ | 5.46 ± 0.098
VSCAESVGIYINYWFLNCQE | 8.702 ± 0.03
VSCCNLVVDLKRTILLFGGR | 7.504 ± 0.052
VSCDNASSVLFFVRTTIWCT | 0.751 ± 0.74
VSGMPIKMR | 0.886 ± 0.34

Substance | amyloid nucleation score
VSHMNCLDMICHLWISQLVL | 1.65 ± 0.098
VSHRIFGGNMWPGKSHECMC | inactive
VSIIRIKYSNQAISVRNSDS | 4.155 ± 0.038
VSISKVFAAFVFLEPANTRI | 5.36 ± 0.097
VSKNYDHCELRHMECAYWYT | 0.211 ± 0.19
VSKPQKRFKDEFYSLLSVKF | -0.55 ± 0.76
VSLHKRPTWLPVCIARYGWS | 0.333 ± 0.24
VSNAGSSTKDILGIHRS | -0.06 ± 1.1
VSPNPIWIVEKWPI | -1.63 ± 0.62
VSQFYSMPLTSSYWSLVSSL | 0.147 ± 0.65
VSRGNAGWS | 3.6 ± 0.075
VSSHNLMPNRNWMFETQLSW | -0.297 ± 1.1
VSSNSVWSIY | -1.01 ± 0.44
VSTLRQGWSILQTPNYVRS | -0.219 ± 0.76
VSVGNPFSVNRQVYCPTTEW | -1.38 ± 0.62
VSVVDGSILMNLCLRLVLRR | -0.068 ± 0.79
VTANNFKWVVIWLSWRGYGD | -1.48 ± 1.1
VTDQVVFSEWIAADYMFDKY | 0.491 ± 0.52
VTIYGVLSRLNDCFFRGVWD | inactive
VTMIPA | -0.207 ± 0.63
VTMKHVAGSSHDCPYAILTN | 0.082 ± 1
VTNCLTIWAFMGSRRCWKAP | 3.62 ± 0.11
VTRDFSRGIGDWLICGDILE | -1.81 ± 0.49
VTTNWGSSVRNQAEGYRPSL | -0.067 ± 0.42
VTVSVGSLYTNFATPKDRMV | 0.357 ± 0.36
VTVVWESDSFRYVYWLNRLE | 0.926 ± 0.48

Substance | amyloid nucleation score
VVAGEYGWTWFFKESLGLGM | -0.332 ± 0.49
VVDCKGVLLAFSNRIFGWTT | -0.064 ± 0.76
VVDGYYGFWVVSQEDISIYP | -0.094 ± 0.54
VVENRALLYGGFVR | 0.135 ± 0.63
VVHDNW | 0.29 ± 0.22
VVLQTKHSLAISGQQLIPMA | 0.32 ± 0.32
VVNLDSF | -1.95 ± 0.62
VVNLETVCIYRKLSYKFQVR | inactive
VVNRYRNTFFCVYWTSAGVL | 6.65 ± 0.073
VVPFIKTRCNPV | -0.829 ± 0.33
VVRPVTLRFCTKGGMYSSVG | 0.407 ± 0.32
VVSERRAFVRGVFDWIITLD | -0.02 ± 0.55
VVSFNWLEYVSNMSQMNWDG | -0.015 ± 0.63
VVTKQMSRFS | 0.701 ± 0.51
VVTRNRISRAGGLRS | 0.616 ± 0.39
VVVRGVQAGCGKPPVSRLRI | 0.838 ± 0.23
VVYASRLC | 0.681 ± 0.35
VVYDHILVAKFRAFVLGPFL | 4.07 ± 0.054
VVYTRIEVILSGDLSPREMV | 0.763 ± 0.24
VWEIEGEPPWVQSVCSWDPR | 3.85 ± 0.057
VWGHWPSRFSQQSRCN | 0.185 ± 0.5
VWLCCLCWVQMDLANVNLWL | 8.315 ± 0.053
VWLEACGFSRIFSLQFLVSV | -0.476 ± 0.76
VWRNRSGNITSVTFL | 5.23 ± 0.069
VWSSLGRECPSSCIVFLSVE | -0.464 ± 0.78
VWVKVLYYSRDICTLWSPGW | -0.059 ± 0.5

Substance | amyloid nucleation score
VYAIHGTRYCELGAPIDKLY | 0.852 ± 0.29
VYAMVGVSLACGCVSWKGHV | 4.75 ± 0.086
VYCEDGY | 0.641 ± 0.36
VYEGSLCLAYERLTGMGFIK | -0.382 ± 0.29
VYFAKRLFVLFIM | inactive
VYFELVPVGTYL | -0.214 ± 1
VYLCARKGM | -0.287 ± 0.79
VYLGSGFAARRSSGEQRRIS | 0.536 ± 0.66
VYLYGPQLLSRWWIQLCCQM | 2.96 ± 0.15
VYRMPGVSWKYVS | 0.501 ± 0.8
VYRNNL | -1.84 ± 1.1
VYYSGALFQNVLYLLSFMVV | -0.501 ± 1.1
WAIRPSRYYITAYAVELHCD | 9.114 ± 0.074
WASLGYTCFGKVRRWAPGTH | 0.371 ± 0.28
WAWVYGCDGYLIGSSRLANG | 0.368 ± 0.25
WCCKVTGHFPDTEQYYFPPP | inactive
WCKQGVGCDLGAMVELSKGG | 1.22 ± 0.28
WCSCQPSFSKKHGEFYNLFL | 9.215 ± 0.032
WCSIDLSHFVCYNLGYMR | 7.395 ± 0.052
WDPLSSCKGACDM | 0.717 ± 0.43
WDTHLYQDMGCFAHLFIRYF | inactive
WECLGTCDVGSCLTWRIGGR | 2.82 ± 0.18

From the supplement of paper PMC12042874
